For test [1], the target named is von Willebrand factor (vWF) (UniProt P04275). The experiment in a line: vWF binding ELISA divided by total antigen ELISA, relative to BDD. (In general: An ELISA detects its analyte on a solid surface through an enzyme-linked reagent.)
The target is the same in test [2]. The experiment in a line: vWF binding ELISA divided by total antigen ELISA, relative to starting KG-2.
The target is the same in test [3]. The experiment in a line: vWF binding ELISA, FVIII bound to vWf in severe hemophilic plasma.
For test [4] the target is unchanged. Nature of the test: vWF binding ELISA divided by total antigen ELISA.
Test [5] shares this target. Nature of the test: vWF binding ELISA value divided by total antigen ELISA value.
The target is the same in test [6]. The experiment in a line: vWF binding ELISA (FVIII bound to vWf in severe hemophilic plasma, captured on anti-vWf mAb) divided by total antigen ELISA, relative to BDD.

Consider 13 substances from patent publication US20060115876A1.

B domain deleted FVIII (BDD), sequence (P00451 other isoform, or with tags, fused parts or gaps limits assumed): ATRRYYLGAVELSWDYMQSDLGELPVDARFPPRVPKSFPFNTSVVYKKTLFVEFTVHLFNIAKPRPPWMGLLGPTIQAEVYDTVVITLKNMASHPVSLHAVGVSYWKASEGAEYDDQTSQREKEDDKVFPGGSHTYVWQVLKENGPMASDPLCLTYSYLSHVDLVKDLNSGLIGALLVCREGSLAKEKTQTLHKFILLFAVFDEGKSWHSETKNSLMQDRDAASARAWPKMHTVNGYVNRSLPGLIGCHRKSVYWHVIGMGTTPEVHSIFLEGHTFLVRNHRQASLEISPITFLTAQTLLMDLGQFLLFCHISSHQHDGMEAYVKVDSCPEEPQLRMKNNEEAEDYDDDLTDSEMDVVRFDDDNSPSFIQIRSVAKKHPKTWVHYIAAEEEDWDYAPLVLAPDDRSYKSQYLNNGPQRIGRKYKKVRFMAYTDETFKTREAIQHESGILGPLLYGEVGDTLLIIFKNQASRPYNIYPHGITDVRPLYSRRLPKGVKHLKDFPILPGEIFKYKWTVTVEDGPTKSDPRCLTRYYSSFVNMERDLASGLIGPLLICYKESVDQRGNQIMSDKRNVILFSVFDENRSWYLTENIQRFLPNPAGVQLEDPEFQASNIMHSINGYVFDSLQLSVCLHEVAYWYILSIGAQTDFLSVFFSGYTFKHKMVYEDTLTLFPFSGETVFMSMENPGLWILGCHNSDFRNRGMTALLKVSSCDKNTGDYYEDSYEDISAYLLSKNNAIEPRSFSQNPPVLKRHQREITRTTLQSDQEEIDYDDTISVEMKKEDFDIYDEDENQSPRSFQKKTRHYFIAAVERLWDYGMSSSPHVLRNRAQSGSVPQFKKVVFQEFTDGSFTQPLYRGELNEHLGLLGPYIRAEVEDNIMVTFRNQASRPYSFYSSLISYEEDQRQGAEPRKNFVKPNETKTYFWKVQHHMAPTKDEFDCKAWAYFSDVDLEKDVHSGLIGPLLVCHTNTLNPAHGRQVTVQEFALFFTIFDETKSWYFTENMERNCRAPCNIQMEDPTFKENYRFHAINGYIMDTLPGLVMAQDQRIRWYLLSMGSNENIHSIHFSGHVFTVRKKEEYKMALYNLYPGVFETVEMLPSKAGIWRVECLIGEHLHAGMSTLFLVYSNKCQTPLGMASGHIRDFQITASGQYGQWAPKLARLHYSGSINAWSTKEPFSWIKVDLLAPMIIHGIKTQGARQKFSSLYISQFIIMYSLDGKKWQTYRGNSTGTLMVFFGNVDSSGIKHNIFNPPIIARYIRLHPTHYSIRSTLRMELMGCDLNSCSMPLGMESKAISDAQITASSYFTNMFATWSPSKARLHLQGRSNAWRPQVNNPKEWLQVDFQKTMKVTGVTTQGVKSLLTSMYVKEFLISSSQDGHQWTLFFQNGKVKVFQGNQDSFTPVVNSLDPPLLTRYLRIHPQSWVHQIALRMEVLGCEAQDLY
PEG2 red (PEG2 mutein treated with reductant followed by removal of reductant), sequence (P00451 other isoform, or with tags, fused parts or gaps mutant): as the sequence (P00451 other isoform, or with tags, fused parts or gaps limits assumed) above, with L491C counted along it

In the case of “PEG2-22 kD PEG (L491C BDD FVIII PEGylated with 22 kD PEG-maleimide) (from UniProt P00451 20-2351)”, the percent specific activity vWF/TAE relative to BDD in test [1] is 87%. On to “PEG2-5 kD PEG (L491C BDD FVIII PEGylated with 5 kD PEG-maleimide) (from UniProt P00451 20-2351)”, for which, in test [1], the percent specific activity vWF/TAE relative to BDD is 125%. “PEG2-33 kD PEG (L491C BDD FVIII PEGylated with 33 kD PEG-maleimide) (from UniProt P00451 20-2351)”: in test [1], the percent specific activity vWF/TAE relative to BDD came to 59%.

For the substance “PEG2-12 kD PEG (L491C BDD FVIII PEGylated with 12 kD PEG-maleimide) (from UniProt P00451 20-2351)”, in test [1], the percent specific activity vWF/TAE relative to BDD worked out at 71%. “wildtype full length FVIII (KG-2) (from UniProt P00451 20-2351)” registered a % Start (vWF/TAE) in test [2] of 100%. Besides, in test [3], the vWF ELISA (FVIII bound to vWf) turned out to be 0.42 µg/mL. Moreover, in test [4], the vWF/TAE (ratio (vWF ELISA ug/mL / TAE ug/mL)) came out at 0.32. Consider “PEG6 mutein (K1808C BDD FVIII) (from UniProt P00451 20-2351)”, for which, in test [1], the percent specific activity vWF/TAE relative to BDD was determined as 100%. With “KG-2-22 kD PEG (wildtype full length FVIII PEGylated with 22 kD PEG) (from UniProt P00451 20-2351)”, the % Start (vWF/TAE) in test [2] is 94%. The substance further displayed a vWF ELISA (FVIII bound to vWf) in test [3] of 0.19 µg/mL. In addition, the vWF/TAE (ratio (vWF ELISA ug/mL / TAE ug/mL)) in test [4] turned out to be 0.3.

“PEG2-43 kD PEG (L491C BDD FVIII PEGylated with 43 kD PEG-maleimide) (from UniProt P00451 20-2351)”: in test [1], the percent specific activity vWF/TAE relative to BDD was found to be 57%.

In turn, “KG-2-30 kD PEG (wildtype full length FVIII PEGylated with 30 kD PEG) (from UniProt P00451 20-2351)” showed a % Start (vWF/TAE) in test [2] of 100%. This substance displayed a vWF ELISA (FVIII bound to vWf) in test [3] of 0.19 µg/mL. The vWF/TAE (ratio (vWF ELISA ug/mL / TAE ug/mL)) in test [4] came to 0.32.

With “PEG2 red (PEG2 mutein treated with reductant followed by removal of reductant) (from UniProt P00451 20-2351)”, the percent specific activity vWF/TAE relative to BDD in test [1] is 98%. As for “PEG6-33 kD PEG (K1808C BDD FVIII PEGylated with 33 kD PEG-maleimide) (from UniProt P00451 20-2351)”, the percent specific activity vWF/TAE relative to BDD in test [1] was 90%. “PEG2 mutein (L491C BDD FVIII) (from UniProt P00451 20-2351)”: the percent specific activity vWF/TAE relative to BDD in test [1] came out at 138%. In test [5], “B domain deleted FVIII (BDD) (from UniProt P00451 20-2351)” had a vWF/TAE (specific vWF binding activity) of 1 vWF/TAE. Further, the percent specific activity vWF/TAE relative to BDD in test [6] came out at 100%.
